Data: patent US12134788B2, “Engineered prephenate dehydrogenases and arogenate dehydrogenases and methods of using the same” (Wisconsin Alumni Research Foundation, priority 2017, dated 2024)
Entries after “also recorded” stand apart in the source; their conditions may differ.

B1: SsTyrA: TyrA from Sediminispirochaeta smaragdinae DSM 11293 (spirochaetes), recombinant (protein)
chain: MVEHTVGIYGLGRFGSFWAKSLAASGLKVIGYNRSKRALPEGVVSGSETEVLSCNTLFYCVAISSFEEVLSRTAAKIGKHTLVFDTCSVKVEPVRTMERLLPQGCTFAGSHPMFGPDSASEGMDGLPMVLCPGRDDEGKVDFWRHHFSKMGLRVIEITADRHDKEAAYTQGITHVVGRILGELDLHESEIATSGYKRLLQVREQTCNDPLQLFIDLQRYNPYTHGMRMELTSALEQIMTLFAQADLPPDRP
modifications: S. smaragdinae; misc_feature (1)..(251): S. smaragdinae TyrA SsTyrA
notes: TyrA from Sediminispirochaeta smaragdinae DSM 11293 (spirochaetes), recombinant
B2: OiTyrA: TyrA from Ochrobactrum intermedium LMG 3301 (α-proteobacteria), E. coli cell lysate (protein)
chain: MRPLRGQSMSRDRNQHTKIGIIGFGAFGQLIARHLNPYFRLYAYDPAADLEQTALMHGVALASVEQVAACDIVILATPVATLESVVDKIAPHLCPGALVLDVGSVKVGPADIMRRGLPAHVDIVATHPLFGPQSARHGIAGLKIAVCPVRGTRFHRVAAFLKKHLSLNVIVTTPEDHDREAAMVQGLTHLIARVLVQMEPLPTRMTTKSFDLLMQAVSMVRHDAPEVFQAIEHANPYAPQVRRHFFALADQINEELARVQPMAAREEAA
modifications: O. intermedium; misc_feature (1)..(269): O. intermedium TyrA OiTyrA
notes: TyrA from Ochrobactrum intermedium LMG 3301 (α-proteobacteria), E. coli cell lysate

How the values were obtained:
[1] = ADH assay of microbial TyrA enzymes (Example 2); type: biochemical; conditions: ADH activity, NADP+ versus NAD+, 0.8 mM
Procedure: (§1) ADH and PDH assays were performed using purified recombinant enzymes for SsTyrA and MhTyrA Wt and Q227E mutant, while the E. coli cell lysate was used for OiTyrA as expression and purification of this enzyme was unsuccessful. Reactions contained 0.8 mM substrate (arogenate or prephenate) and 0.8 mM cofactor (NADP+ or NAD+) together with reaction buffer (25 mM HEPES pH 7.6, 50 mM KCl, 10% (v/v) ethylene glycol). For OiTyrA assays containing cell lysates, reactions were incubated for 45 minutes and analyzed using HPLC as previously reported (Schenck et al., 2015). For pure enzymes, reactions were monitored every 10-15 seconds for reduced cofactor at A340 nm using a microplate reader (Tecan Genios). Kinetic parameters of purified recombinant enzymes were determined from assays containing varying concentrations of arogenate (39.1 μM-5 mM) or prephenate (39.1 μM-5 mM) substrate and monitored 10-15 seconds for reduced cofactor at A340 nm using a microplate reader (Tecan Genios). Kinetic parameters were determined by fitting initial velocity data to the Michaelis-Menten equation using Origin software (OriginLab) from technical replicate assays (n=3). Arogenate substrate was prepared by enzymatic conversion of prephenate (Sigma-Aldrich). All enzyme assays were conducted at a reaction time and protein concentration that were in the linear range and proportional to reaction velocity.

[2] = PDH assay of microbial TyrA enzymes (Example 2); type: biochemical; conditions: 0.8 mM arogenate or prephenate, 0.8 mM cofactor
Procedure: as §1

| Molecule | cofactor preference (in words) [1] | ADH and PDH activity (in words) [2] |
| --- | --- | --- |
| B1 | slight preference for NAD+ | showed ADH activity; also recorded: PDH activity was not detectable |
| B2 | strongly preferred NAD+ | had ADH but not PDH activity |
